Experimental data published in patent publication US20160032292, “Aptamer-Guided Gene Targeting” (Georgia Tech Research Corporation, published 2016).

Assays:
[1] = target: T1, I-SceI homing endonuclease (UniProt P03882 P03882:1-235); experiment: capillary electrophoresis with LIF; binding affinity about 3.16 uM; 50 nM A7, 1 uM I-SceI (FIG. 9D); binding also seen by EMSA; settings: tags: provided by F. Gimble (Purdue University), dialyzed; label: 5' FAM; hairpin with 4-nt loop (mfold prediction)
T1 sequence: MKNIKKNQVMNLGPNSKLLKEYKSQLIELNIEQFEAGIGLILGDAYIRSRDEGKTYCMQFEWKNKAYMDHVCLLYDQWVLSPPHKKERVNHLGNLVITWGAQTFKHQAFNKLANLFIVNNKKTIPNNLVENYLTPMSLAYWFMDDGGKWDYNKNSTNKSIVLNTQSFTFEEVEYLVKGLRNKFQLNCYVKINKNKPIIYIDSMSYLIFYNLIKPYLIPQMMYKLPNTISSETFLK
Description: (§1) The protocol for SELEX using capillary electrophoresis (CE) was essentially as described earlier (Berezovski, et al., Nat. Protoc., 1:1359-1369 (2006)), but with a few modifications. Initial calibrations were done with a serial dilution of the aptamer library in RB1. The free DNA run time with 100 nM of the library was determined (FIG. 8A). […] CE was done using a Beckman Coulter (Atlanta, Ga., USA) P/ACE MDQ with laser-induced fluorescence (LIF) detection. The LIF was composed of a 488-nm air-cooled argon ion laser along with an on-board detector. CE runs were carried out with a voltage of 10 kV. The first round of selection began after determination of the collection window based on the bulk affinity analysis. For the initial round of in vitro selection, the DNA library (5 μl at 200 μM) was mixed with 5 μl of selection buffer 3 (SB3) (100 mM Tris-HCl at pH 8.2, 200 mM NaCl and 10 mM MgCl₂) for a final concentration of 100 μM DNA library, 50 mM Tris-HCl at pH 8.2, 100 mM NaCl and 5 mM MgCl₂. This mixture was heated in the BioRad iCycler™ to 94° C. for 1 min, and then cooled to 20° C. at a rate of 0.5° C./s. After the folding of the DNA library, 5 μl of 200 nM I-SceI dissolved in selection buffer 1 (SB1) (50 mM Tris-HCl at pH 8.2, 100 mM NaCl and 5 mM MgCl₂) was added to 5 μl of the DNA-SB3 mixture to make the final volume to 10 μl. […]

[2] = target: T1, I-SceI homing endonuclease; experiment: capillary electrophoresis with LIF; binding affinity about 52.49 uM; binding also seen by EMSA; settings: tags: provided by F. Gimble (Purdue University), dialyzed; label: FAM
Description: as §1

[3] = target: T1, I-SceI homing endonuclease; experiment: EMSA; negative control; described as non-binding random control; 3 uM I-SceI, Mg2+, Zn2+, gel result not shown; settings: tags: provided by F. Gimble (Purdue University), dialyzed; label: 5' 32P
Description: The internal region was chosen using a random DNA sequence generator with a specified GC content of 50% (http://www.faculty.ucr.edu/˜mmaduro/random.htm). I-SceI was dialyzed before running the EMSA gels in Run Buffer 1 (RB1), 50 mM Tris-HCl at pH 8.2, as previously described. Bovine serum albumin (BSA) was purchased as a lyophilized powder through Sigma-Aldrich (St. Louis, Mo.) and was greater than 98% pure. BSA stock of 10 mg/ml was made in RB1 buffer.
The buffer conditions used for binding had several components described previously (22). Each reaction consisted of 2 μL 5×EMSA buffer 1 (100 mM Tris-HCl at pH 8.5, 250 mM NaCl, 10 μM ZnCl₂, 10 mM MgCl₂, 10% glycerol), 1 μL BSA (10 mg/ml), 1 μL freshly prepared 20 mM DTT, and 1 μL 100 mM MgCl₂ for a final buffer concentration of 20 mM Tris-HCl, 50 mM NaCl, 2 μM ZnCl₂, […], 1 mg/ml BSA, […], and 2% glycerol. After mixing these components together, 2 μL of dialyzed I-SceI (total of 3 μM) for each reaction was added, bringing the volume to […]. The radiolabeling of the oligonucleotides had varying efficiencies such that the counts per minute (cpm) measurement of the radioactivity for each labeled oligonucleotide was different. […] The radioactivity in the gel was analyzed by Phosphor Imager (Molecular Dynamics—Typhoon Trio Imager™, GE Healthcare Life Sciences, Pittsburgh, Pa.). […]

[4] = target: T2, I-SceI homing endonuclease (expressed in yeast from GAL1-10 promoter) (UniProt P03882 P03882:1-235); experiment: cell_activity; gene correction over non-binding C.TRP5.54 (62500 vs 8950 per 1e7 cells); galactose; settings: aptamer hairpin at 5' end (predicted)
T2 sequence: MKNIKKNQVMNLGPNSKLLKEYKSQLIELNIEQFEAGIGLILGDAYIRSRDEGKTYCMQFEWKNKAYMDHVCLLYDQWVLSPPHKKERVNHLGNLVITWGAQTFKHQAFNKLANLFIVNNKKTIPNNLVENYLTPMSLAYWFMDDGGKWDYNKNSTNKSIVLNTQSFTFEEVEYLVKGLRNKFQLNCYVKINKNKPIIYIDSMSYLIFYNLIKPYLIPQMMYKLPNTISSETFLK
Description: (§2) For this experiment, I-SceI was induced 3 h by addition of galactose (final concentration 2%) to the liquid YPLac medium before transformation by oligonucleotides, and cells were plated on selective media containing glucose. Viability after transformation was calculated by plating to glucose-containing synthetic complete medium. Viability after transformation for the I-SceI-containing strains was typically 20-40% both on glucose and galactose. […] The frequency of gene correction is based on the number of transformants relative to 10⁷ viable cells that formed a colony on galactose-containing synthetic complete medium (or glucose-containing synthetic complete medium depending on the transformation experiment). Yeast cell culture and standard molecular biology techniques were used as previously described
Therefore, we removed the primer regions surrounding the I-Sce I aptamer sequence in the bifunctional oligonucleotides, and this also allowed us to extend the sequence length of the gene-correction donor part of the bifunctional molecule. Oligonucleotides that contained the aptamer sequences from A4 or A7 at the 5′ end of a DNA sequence containing 54 bases of homology to restore the disrupted trp5 gene (A4.TRP5.54 and A7.TRP5.54, Table 1) were tested in yeast strains FRO-155/156 and FRO-526/527 (T5B and T5 in FIG. 1) for their capacity to restore the functionality of the trp5 gene. […]

[5] = target: T2, I-SceI homing endonuclease (expressed …); experiment: cell_activity; gene correction over C.TRP5.40 (202 vs 13.9); 32-fold with PAGE-purified oligos
[6] = target: T2, I-SceI homing endonuclease (expressed …); experiment: cell_activity; gene correction over C.ADE2.54; BY4742 and 55R5-3C
Description: as §2, with “Sequences of oligonucleotides used for repair can be found in Table 1. Cells from each transformation were diluted appropriately and plated to synthetic complete medium lacking the respective amino acid and containing 2% galactose for I-SceI induction, 2 or 0.2% galactose for HO induction or 2% glucose for I-SceI or HO repression. The exception to this is the experiment to determine the position of the aptamer in the targeting DNA sequence (at the 5′ or 3′ end). For” for “For”, “described […]” for “described”

[7] = target: T2, I-SceI homing endonuclease (expressed …); experiment: cell_activity; gene correction over C.LEU2.54; BY4742 and 55R5-3C
Description: as §2, with “Sequences of oligonucleotides used for repair can be found in Table 1. Cells from each transformation were diluted appropriately and plated to synthetic complete medium lacking the respective amino acid and containing 2% galactose for I-SceI induction, 2 or 0.2% galactose for HO induction or 2% glucose for I-SceI or HO repression. The exception to this is the experiment to determine the position of the aptamer in the targeting DNA sequence (at the 5′ or 3′ end). For” for “For”, “described […]” for “described”

[8] = target: T2, I-SceI homing endonuclease (expressed …); experiment: cell_activity; gene correction over C.TRP1.54; 55R5-3C
Description: as §2, with “Sequences of oligonucleotides used for repair can be found in Table 1. Cells from each transformation were diluted appropriately and plated to synthetic complete medium lacking the respective amino acid and containing 2% galactose for I-SceI induction, 2 or 0.2% galactose for HO induction or 2% glucose for I-SceI or HO repression. The exception to this is the experiment to determine the position of the aptamer in the targeting DNA sequence (at the 5′ or 3′ end). For” for “For”, “described […]” for “described”

GCGGGCGCTGTTGACAGCGGTCAGGTGGATGGGATG (ssDNA) [A7] was tested, and the Kd [1] was 3.16 µM.

TGAAGGCCAAAACGGCTGAATCGATAGT (ssDNA) [A4] was tested, and the Kd [2] was 52.5 µM.

B1: P1-r-P2 (ssDNA)
DNA: CTTCTGCCCGCCTCCTTCCGGTCGGGCACACCTGTCATACCCAATCTCGAGGCCAGACGAGATAGGCGGACACT
B1: no binding [3].

B2: A7.TRP5.54 (ssDNA)
DNA: GCGGGCGCTGTTGACAGCGGTCAGGTGGATGGGATGGGAAAAGGGTTTTGATGAAGCTGTCGCGGATCCCACATTCTGGGAAGACTTCAA
B2 gave an activity [4] of 7 fold.

B3: A7.TRP5.40 (ssDNA)
DNA: GCGGGCGCTGTTGACAGCGGTCAGGTGGATGGGATGGGTTTTGATGAAGCTGTCGCGGATCCCACATTCTGGGAAG
With B3 the activity [5] was 15 fold.

B4: A7.ADE2.54 (ssDNA)
DNA: GCGGGCGCTGTTGACAGCGGTCAGGTGGATGGGATGGGACATTATACCATTGATGCTTGCGTCACTTCTCAATTTGAAGCTCATTTGAGA
For B4, the activity [6] was 3 fold.

B5: A7.LEU2.54 (ssDNA)
DNA: GCGGGCGCTGTTGACAGCGGTCAGGTGGATGGGATGCGCTTTCATGGCCCTACAACATGAGCCACCATTGCCTATTTGGTCCTTGGATAA
B5 showed an activity [7] of 2 fold.

B6: A7.TRP1.54 (ssDNA)
DNA: GCGGGCGCTGTTGACAGCGGTCAGGTGGATGGGATGGTGGCAAGAATACCAAGAGTTCCTCGGTTTGCCAGTTATTAAAAGACTCGTATT
B6 showed an activity [8] of 2.5 fold.
